Laboratory results as given in patent US11866467.

How the values were obtained:
[1] = molecular target: TGF-β receptor (type I and II receptors) on mouse cells (MFB-F11 fibroblasts, mouse splenocytes, mouse CD4+ T cells) (mouse) (UniProt Q64729); test: cell-based or functional assay
[2] = molecular target: TGF-β receptor on human peripheral blood CD4+ T cells (human) (UniProt P36897); test: cell-based or functional assay
Chain of UniProt P36897 (P36897 34-503, chain 1 of 2): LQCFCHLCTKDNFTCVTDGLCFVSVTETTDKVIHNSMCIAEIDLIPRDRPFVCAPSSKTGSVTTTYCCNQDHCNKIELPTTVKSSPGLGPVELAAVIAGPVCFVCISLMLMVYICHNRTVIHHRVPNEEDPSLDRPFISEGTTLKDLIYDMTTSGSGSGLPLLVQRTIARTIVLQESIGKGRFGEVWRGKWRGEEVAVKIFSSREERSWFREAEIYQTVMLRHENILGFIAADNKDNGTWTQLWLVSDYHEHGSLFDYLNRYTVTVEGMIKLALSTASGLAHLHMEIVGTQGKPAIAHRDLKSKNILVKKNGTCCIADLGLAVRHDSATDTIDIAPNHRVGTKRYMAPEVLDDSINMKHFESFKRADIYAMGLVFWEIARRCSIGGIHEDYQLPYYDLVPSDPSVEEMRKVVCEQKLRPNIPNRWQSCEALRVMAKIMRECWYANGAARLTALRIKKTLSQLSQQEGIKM
Chain of UniProt P36897 (P37173 23-567, chain 2 of 2, further chain): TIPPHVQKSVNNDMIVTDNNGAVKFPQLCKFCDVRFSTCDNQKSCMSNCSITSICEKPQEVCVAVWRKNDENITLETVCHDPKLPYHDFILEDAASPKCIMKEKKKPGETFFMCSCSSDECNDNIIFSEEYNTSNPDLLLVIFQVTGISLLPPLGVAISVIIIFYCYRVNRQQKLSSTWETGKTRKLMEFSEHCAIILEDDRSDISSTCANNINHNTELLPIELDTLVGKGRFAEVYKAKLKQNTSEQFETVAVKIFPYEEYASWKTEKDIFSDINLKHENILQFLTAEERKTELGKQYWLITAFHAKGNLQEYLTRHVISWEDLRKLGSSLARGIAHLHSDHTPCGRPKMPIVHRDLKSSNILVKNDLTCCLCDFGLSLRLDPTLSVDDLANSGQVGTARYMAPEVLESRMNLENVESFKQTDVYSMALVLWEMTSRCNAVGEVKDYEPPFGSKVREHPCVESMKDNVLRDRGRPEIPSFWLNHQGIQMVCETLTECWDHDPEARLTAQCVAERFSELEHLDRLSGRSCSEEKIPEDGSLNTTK

Chain of UniProt Q64729 (Q64729 30-503, chain 1 of 2): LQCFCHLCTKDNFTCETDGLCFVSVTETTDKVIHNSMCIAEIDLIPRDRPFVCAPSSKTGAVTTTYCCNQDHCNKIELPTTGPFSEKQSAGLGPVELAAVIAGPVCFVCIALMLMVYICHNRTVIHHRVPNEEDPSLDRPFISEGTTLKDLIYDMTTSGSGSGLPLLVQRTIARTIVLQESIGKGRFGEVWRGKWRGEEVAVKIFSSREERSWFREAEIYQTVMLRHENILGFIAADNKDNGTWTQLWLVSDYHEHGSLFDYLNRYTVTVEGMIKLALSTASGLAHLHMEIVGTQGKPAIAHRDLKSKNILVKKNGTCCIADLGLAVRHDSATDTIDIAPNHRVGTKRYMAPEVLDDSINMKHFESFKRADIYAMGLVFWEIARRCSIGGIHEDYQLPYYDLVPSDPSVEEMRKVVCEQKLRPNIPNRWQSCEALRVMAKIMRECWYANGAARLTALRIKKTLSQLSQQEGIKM
Chain of UniProt Q64729 (Q62312 24-567, chain 2 of 2, further chain): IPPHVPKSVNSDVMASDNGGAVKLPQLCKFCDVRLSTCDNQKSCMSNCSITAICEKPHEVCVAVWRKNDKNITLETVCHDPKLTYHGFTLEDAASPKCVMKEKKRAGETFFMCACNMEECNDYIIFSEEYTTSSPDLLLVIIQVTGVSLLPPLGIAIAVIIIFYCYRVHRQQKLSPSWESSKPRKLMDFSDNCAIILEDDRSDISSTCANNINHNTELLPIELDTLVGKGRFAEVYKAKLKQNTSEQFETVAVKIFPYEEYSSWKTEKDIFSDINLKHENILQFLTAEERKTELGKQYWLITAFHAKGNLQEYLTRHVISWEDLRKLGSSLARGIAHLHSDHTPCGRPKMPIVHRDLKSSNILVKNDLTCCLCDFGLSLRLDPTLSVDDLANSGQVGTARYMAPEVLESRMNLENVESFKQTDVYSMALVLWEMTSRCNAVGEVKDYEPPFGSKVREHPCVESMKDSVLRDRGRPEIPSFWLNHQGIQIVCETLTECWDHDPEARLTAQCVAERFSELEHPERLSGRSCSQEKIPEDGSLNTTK

Foxp3+ Treg conversion, % of all mouse CD4+ cells at 10 ng/ml (0.78 nM monomeric hTGF-β1) [1] [%]	Substance	Foxp3+ Treg conversion, % of all mouse CD4+ cells at 38.1 ng/ml (0.78 nM) [1] [%]	MFB-F11 reporter cells, alkaline phosphatase, OD405 at 100 ng/ml (maximum signal) [1] [OD405]	CD4+CD25+Foxp3+ Treg among human CD4+ T cells, maximum [2] [%]
	H. polygyrus TGF-β Mimic (TGM), purified recombinant protein with hexa-histidine C-terminal tag (ligand)	90.7	2.46	84
79.7	recombinant human TGF-β1 (R&D Systems) (from UniProt P01137 279-390) (ligand)		1.48	
